Assay results published in the nanobody polyreactivity screen of Harvey et al. (2022).

Test: yeast display, Sf9 membrane polyspecificity reagent, FACS + sequencing; frameworks hold sequencing errors
Procedure, shortened: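 Synthetic nanobody libraries on Saccharomyces cerevisiae BJ5465 were galactose-induced for 36–48 hours, stained 1 hour at 4 °C with 10% biotinylated, detergent-solubilized Sf9 membrane reagent and enriched on streptavidin microbeads. FACS then separated cells into low and high (top ~1%) gates by anti-HA (expression) and streptavidin (reagent binding) fluorescence. Genes were colony-PCR amplified, MiSeq 2 × 250 sequenced and CDR-length filtered. A clone's polyreactivity label is that of its gate of origin.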

| Sequence | polyreactivity (PSR sort gate) |
| --- | --- |
| QVQLVETGGGLVQAGGSLRLSCAASGPFYPYYAMGSYRQAPGKERELVATISTAGSTNYADSVKGRFTISRDNATNTVYLQMNSLIPEDTAVYYCATRNTWYHRGYDYWGQGTQVPVSS | low polyreactivity |
| QVQLVESGGGLVQAGGSLRLSCAASGSIFEGYVMGWYRQAPGKERELVAGISRGSRTNYADSVKGRFTISRDNAKNTVYLQMNSLKPEDTAVYYCAAEYWGVYRGFVSSFDYWGQGTQVTVSS | high polyreactivity |
| QVQLVESGGGLVQAGGSLRLSCAASGSTFNQYDMGWYRQAPGKERELVAAITWSGTSTYYADSVKGRFTISRDNAKNTVYLQMNSLTPEDTAVYYCAADDPFHSSCWTYRYGYWGQGTQVTVSS | low polyreactivity |
| QVQLVESGGGLVQAGGSLRLICAASGSIFADYAMGWYRQAPGKERELVAAITGGTSTYYADSVKGRFTISRDNAKNTVYLQMNSLKPEDTAVYYCAAYYYWEFSYYEYDYWGQGSQVTVSS | low polyreactivity |
| QVQLVESGGGLVQAGGSLRLSCAASGSTFWGYTMGWYRQAPGKERELVAAISTIGGSTYYADSVKGRFTISRDNAKNTVYLQMNSLKPEDTAVYYCAAEVYTFSGTSWVKDGGYWGQGTQVTVSS | low polyreactivity |
| QVQLVESGGGLVQAGGSLRLSCAASGFTFHYYDMGWYRQAPGKERELVASISWSGGDTYYADSVKGRFTISRDNAKNTVYLQMNSLKPEDTAVYYCAADPTQEVQYLTPYTYDYWGQGTQVTVSS | low polyreactivity |
| QVQLVESGGGLVQAGGSLRLSCAASGSIFCRNAMGWYRQAPGKERELVAAITSGGTTNYADSVKGRFTISRDNAKNSVYLQMNSLKPEDTAVYYCATRASYLRRYDHPHSDVDYWGQGTQVTVSS | low polyreactivity |
| QVHLVETGGGLVQAGGSLRLSCAASGFTFAYYAMGWYRQAPGKEREFVAVITWSGGDKYYADSVKGRFTISRDIAKNTVYLQMNSLKPVDTSVYYCNADAYRITRYGYDYWGQGTQVTVSS | high polyreactivity |
| QVQLVESGGGLVQARGSLRLSCAASGSIFIRNAMGWYRQAPGKERELVAAISTIGGRTYYADSVKGRFTISRDNAKNTVYLQMNSLKPEDTAVYYCAAEQGTPSTNWYDYWGQGTQVTVSS | low polyreactivity |
| QVKLVDSGGGLVQAGGSLRLSCAASGRTFRYYTMGWYRQAPGTERELVAAITRNVGRTYYADSVKGRFTISRDNAKNTVYLQMNSLKPEDTAVYYCAAGTYDGGYHYDYWGQGTQLTVSS | high polyreactivity |
| QVQLEESGGGLVQAGGSLSLSCAASGFIFPTYAMGWYRQAPGKERELVAVISGGGRTKYADSVKGRFTISRDNAKNTVYLQMNSLKPEDTAVYYCNADYWKGWTKFEYWGQGTQVTLSS | high polyreactivity |
| QVQLEESGGGLVQAGGSLRLSCAASGNTLGPYAMGWYRQATGKERELVAAITWSGGITDYADYVKGRFTISRDNAKNTVYLQMNSLKPEDTAVYYCNSGPSLGIFQGTSVGLRYDYWGQGTQVTLSS | low polyreactivity |
| QVKLVESGGGLVQAGGSLRLSCAASGRTFAWYTMGRYRQAPGKERALVAAISGSGGSTYYADSVKGRFTISRDNAKNTVYLQLNSLKPEDTDVYYCARRVDSYYCHTRYYYWGQGTQVTVSS | high polyreactivity |
| QVQLVEAGGGLVQAGGSLRLSCAASGITLYLYVMGWYRQAPGKEREFVAAIRWSGGSTYYADSVKGRFTISRDNAKNTVYLQMNSLKPEDTAVYYCNAEVYCYYSARRPGYEYWGQGTQVTVSS | low polyreactivity |
| QVQLVESAGGLVQAGGSLRLSCAATGFTFYTYAMGWYRQAPGKERELVADISSGGSTNYADSVKGRFTISRDNAKNTVYLQMNSLKPEDTAVYYSSAVYYFLDWYDYWGQGTQVNVSS | low polyreactivity |
| QVQLVESGGGLVQAGGSLRLSCDASGRIFYINALGWYRQAPGKERELVASITGSGDSTYYADSVKGRFTISRDNAKNTVYLQMNILKPEDTAVYYCAARTYYYYGPRYYYWGQGTQVTVSS | low polyreactivity |
| QVQLVESGGGLVQAGGSLRLSCAASGFIFYRYAMGWYRQAPGKERELVAVISGSGGRTYYADSVKGRFTISRDNAKNTVYLQMNSLKPEDTAVYYCAAVTRRRYYGHIYGYWGQGTQVTVSS | high polyreactivity |
| QVQLVESGGGLVQAGGSLRLSCAASGRIFYWYVMGWYRQAPGKERELVATIRYSGGNTYYADSVKGRFTISRDNAKNTVYLQMNSLKPEETEVYYCAAGSLYWGRSPTRGGQGGYWGQGTQVTVSS | high polyreactivity |
| QVQLVDSGGGLDQAGGSLRLSCAASGFTFGDNAMGCYRQAPGKERELVARITGDGSTYYADSVKGRFTISRDNAKNTVYLQMNSLKPEDTAFFYCAADYSPRYTQIEYGYWGQGTQVTVSS | low polyreactivity |
| QVQIEESGGGLVQAGGSLRLSCAASGLIFYYYAMGWYRQAPRKERELVAVFTESGYSTYYADYVKGLFTISRDYAKNNDYLQMNRLKPEDTAVYYCAAHGRAYVGGVGDDYWGQGTQVTVSS | low polyreactivity |
| QVQLVESGGGLVQAGGSLRLSCAASGSIFYKYVMGWYRQAPGKERELVAAISRGGGSTYYADSVKGRFTISRDNAKNSVYLQMNSLKPEDTAVYYCNAVGRPRYGHGFDHWGQGTQETVSS | high polyreactivity |
| QLQLVESGGGLVQAGGSLRLSCAASGRTFYRNGKGWYIQAPGKERELVATISSGGITNYADSVKGRFTISRDNAKNTVYLQMNSLKPEDTAVYYCNAKKAYYGRGMNYWGQGTQVTVSS | low polyreactivity |

| Sequence | polyreactivity (PSR sort gate) |
| --- | --- |
| QVQLVESGGGLVQSGGSLRLSCAASGRIFHYNAMGWYRQAPGKERELVAVITTIGGDTYYADSVKGRFTISRDNAKNTVYLQMNSLKPEDTAVYYCARDRYDNPYDQDLDYWGQGTQVTVSS | low polyreactivity |
| QVQLVESGGGLVQAGGSLRLSCAASGRIGYNVMGWYRPAPGKERELVADISRGGGRTYYADSVKGRFTISRDNAKNTVYLQMNSLKPEDTAVYYCNAVTYYVDGGWYDYDYWGQGTQVTVSS | high polyreactivity |
| QLQLVESGGGLVQAGGSLRLSCAASGSTFVYYAMGWYRPAPGKERELVAGITSSGGSTYYADSVKGRFTISRDNAKNTVYLQMNSLKPEDTAVYYCAAYVWVQQGRYYYWGQGTQVTVSS | low polyreactivity |
| QVQLVESVGGLVQAGGSLRLSCAASGIILLYYALGWYRQAPGKERELVAAITTSGGRTYYADSVKGRFTISRDNAKNTVYLQMNSLKPEDTAVYYCAASTQGTYYPYKRYDYWGQGTQVTVSS | high polyreactivity |
| QVQLVESGGGLVQAGGSLRLSCAASGSIFFSSAMGWSRQEPGKERELVAAISSGASTYYADSVKGRFTISRDNAKNTVYLQMNSLKPEDTAVYYCAARGYRLVPVDFYYWGQGTQVTVSS | low polyreactivity |
| QVQLVESVGGLVQAGGSLRLSCAASGFTFNGYAMGWYRQAPGKERELVAAINISGGSTYYADSVKGRFTISRDNAKNTVYLQMNSLKPEDTAVYYCAARLWGIRYSYRYGYWGQGTQVTVSS | high polyreactivity |
| QVQLVESGGGLVQAGGSLRLSCAASGNTIGVNAMGWYRQAPGKERELVAVITSGGGSTYYADSVKGRFTISRDNAKNTVYLQMNSLKPEDTAVYYCARRSYRLYTLGNGYWGQGTQVTVSS | low polyreactivity |
| QVQLVESGGGLVQAGGSLRLSCAASGRILGNNVMGWYRQAPGKERELVAAITSSGGRTYYADSVKGRFTISRDNAKNTVYLQMNSLKPVDTAVYYCAAERRYYGKFNYWGQGTQVTVSS | high polyreactivity |
| QVQLVESGGGLVQAGGSLRLSCAASGGTFYLNAMGWYRQAPGKERELVAGITWGGGRTYYADSVKGRFTISRDNAKNTVYLQMNSLKQEDTEVYYCAAGAWRGPYSGYYYWGQGTQVTVSS | low polyreactivity |
| QVKLVESGGGLVQAGGSLRLSCAASGSIFWYNAMGWYRQAPGKERELVAAIRWRGGSTYYADSVNGRFTISRDNAKNTVYLQMNSLKPEDTAVYYCAAQVYVSQMYTSYYYWGQGTQVTVSS | high polyreactivity |
| QFQLVESGGGLVQAGGSLRLSCAASGLTFYAYARGWYRQAPGKDSELVAAISSGGSTSYADSVKGRFTISRDNAKYTVYLQMNSLKPEDTAVYYCAARPISSRFFGWGYNYWGQGTQVTVSS | high polyreactivity |
| QVQLVESGGGLVQAGGSLRLSCAASGSTFRFNTMGWYRQAPGKERELVAAISYSGGSTYYADSVKGRFTISRDNAKNTVYLQMNSLKPEDTAVYYCAVQAWYLTYSYPYSKGYYWGQGTQVTVSS | high polyreactivity |
| QVQLVESGGGLVQAGGSLRLSCAASGFIFWYYAMGWYRQAPGKERELVAGITSGGSTNYADSVKGRFTISRDNAKNSVYLQMNSLKPEDTAVYYCAAAPYGGFGRGYDYWGQGTQVTVSS | high polyreactivity |
| QVQLVESGGGLVQAGGSLRLSCAASGITFGGNALGWYRQAPGTERELVAGIDDGGSTNYADSVKGRFTISRDNAKNTVYLQMNSLKPEDTAVYYCAVQGHPPLVILPGFLFDYWGQGTQVTVSS | low polyreactivity |
| QDQLVESGGGLDHAGGSIRLSCAASGFISKYYAMGWYTQAPGKERELVASISRDGSTSYADTVKGRFTNTRDNAKNPVYLQMNSLKPEDTAVYYCNAGYNWYPLFDYWGQGTQVTVSS | high polyreactivity |
| QVQLVESGGGLVQAGGSLRLSCAASGNIFYINTMGWYRQEPGKERELVDAIDASDGSTYYADSVKGRFTISRDNAKNTVYLQMNSLKPEDTAVYYFASRRGYDSVYYFYTLWYYYWGQGTQVTVSS | low polyreactivity |
| QVQLVESGGGLVQAGGSLRLSCAASGRIIGQYAMGWYRQAPGKERELVAAITQRGGSTYYADSVKGRFTISRDNAKNTVYLLMNCLKPEDTAVYYCNKRYRFTGIRDPFDYWGQGTQVTVSS | low polyreactivity |
| QVQLVESGGGLVQAGGSLRLSCAASGRILPGYALGWYRQAPGKERELVAAIRGNGDSTYYADSVKGRFTISRDNAKNTVYLQMNSLKPEDTAVYYCAARRVSTIPRDSYRGRKYGYWGQGTQVTVSS | low polyreactivity |
| QVQRVESGGGLVQAGGSLRLSCAATGFTSGDYAMGWYRQAPGKERELVAAIDSDGSTNYADSVKGRFTISRDNAKNTVYLQMNSLKPEDTADYYCNAKRYGFFYWQGDYWGQGTQVTVSS | low polyreactivity |
| QVQLVESGGGLVQAGGSLRISCAASGFTFVAYAMGWYRKAPGKERELVAAISRRGGTTYYADSVKGRFTISRDNAKNTVYLQMNSLKPEDTAVYYCNARGFPGKFGYWGQGTQVTVSS | high polyreactivity |
| QVQHVESRGGLVQAGGSLRLSCAASGLIFALYAMGWYRLAHGKERELVAAIDWSGGSTYYADSVKGRFTISRDNAKNTVYLQMNCLKPEDTAVYYCAADISSSPGNDYWGQGTQVTVSS | high polyreactivity |
